B1: BBS1, human full length, yeast two-hybrid prey (other, UniProt Q8NFJ9 1-593, looked up, not shown: large carriers)
chain: MAAASSSDSDACGAESNEANSKWLDAHYDPMANIHTFSACLALADLHGDGEYKLVVGDLGPGGQQPRLKVLKGPLVMTESPLPALPAAAATFLMEQHEPRTPALALASGPCVYVYKNLRPYFKFSLPQLPPNPLEQDLWNQAKEDRIDPLTLKEMLESIRETAEEPLSIQSLRFLQLELSEMEAFVNQHKSNSIKRQTVITTMTTLKKNLADEDAVSCLVLGTENKELLVLDPEAFTILAKMSLPSVPVFLEVSGQFDVEFRLAAACRNGNIYILRRDSKHPKYCIELSAQPVGLIRVHKVLVVGSTQDSLHGFTHKGKKLWTVQMPAAILTMNLLEQHSRGLQAVMAGLANGEVRIYRDKALLNVIHTPDAVTSLCFGRYGREDNTLIMTTRGGGLIIKILKRTAVFVEGGSEVGPPPAQAMKLNVPRKTRLYVDQTLREREAGTAMHRAFQTDLYLLRLRAARAYLQALESSLSPLSTTAREPLKLHAVVQGLGPTFKLTLHLQNTSTTRPVLGLLVCFLYNEALYSLPRAFFKVPLLVPGLNYPLETFVESLSNKGISDIIKVLVLREGQSAPLLSAHVNMPGSEGLAAA
B2: BBS5, human full length, yeast two-hybrid prey (other, UniProt Q8N3I7 1-341, looked up, not shown: large carriers)
chain: MSVLDALWEDRDVRFDLSAQQMKTRPGEVLIDCLDSIEDTKGNNGDRGRLLVTNLRILWHSLALSRVNVSVGYNCILNITTRTANSKLRGQTEALYILTKCNSTRFEFIFTNLVPGSPRLFTSVMAVHRAYETSKMYRDFKLRSALIQNKQLRLLPQEHVYDKINGVWNLSSDQGNLGTFFITNVRIVWHANMNDSFNVSIPYLQIRSIKIRDSKFGLALVIESSQQSGGYVLGFKIDPVEKLQESVKEINSLHKVYSASPIFGVDYEMEEKPQPLEALTVEQIQDDVEIDSDGHTDAFVAYFADGNKQQDREPVFSEELGLAIEKLKDGFTLQGLWEVMS
B3: BBS8, human full length, yeast two-hybrid prey (other, UniProt Q8TAM2 1-541, looked up, not shown: large carriers)
chain: MSSEMEPLLLAWSYFRRRKFQLCADLCTQMLEKSPYDQEPDPELPVHQAAWILKARALTEMVYIDEIDVDQEGIAEMMLDENAIAQVPRPGTSLKLPGTNQTGGPSQAVRPITQAGRPITGFLRPSTQSGRPGTMEQAIRTPRTAYTARPITSSSGRFVRLGTASMLTSPDGPFINLSRLNLTKYSQKPKLAKALFEYIFHHENDVKTIHLEDVVLHLGIYPFLLRNKNHIEKNALDLAALSTEHSQYKDWWWKVQIGKCYYRLGMYREAEKQFKSALKQQEMVDTFLYLAKVYVSLDQPVTALNLFKQGLDKFPGEVTLLCGIARIYEEMNNMSSAAEYYKEVLKQDNTHVEAIACIGSNHFYSDQPEIALRFYRRLLQMGIYNGQLFNNLGLCCFYAQQYDMTLTSFERALSLAENEEEAADVWYNLGHVAVGIGDTNLAHQCFRLALVNNNNHAEAYNNLAVLEMRKGHVEQARALLQTASSLAPHMYEPHFNFATISDKIGDLQRSYVAAQKSEAAFPDHVDTQHLIKQLRQHFAML
B4: BBS6, human full length, yeast two-hybrid prey (other, UniProt Q9NPJ1 1-570, looked up, not shown: large carriers)
chain: MSRLEAKKPSLCKSEPLTTERVRTTLSVLKRIVTSCYGPSGRLKQLHNGFGGYVCTTSQSSALLSHLLVTHPILKILTASIQNHVSSFSDCGLFTAILCCNLIENVQRLGLTPTTVIRLNKHLLSLCISYLKSETCGCRIPVDFSSTQILLCLVRSILTSKPACMLTRKETEHVSALILRAFLLTIPENAEGHIILGKSLIVPLKGQRVIDSTVLPGILIEMSEVQLMRLLPIKKSTALKVALFCTTLSGDTSDTGEGTVVVSYGVSLENAVLDQLLNLGRQLISDHVDLVLCQKVIHPSLKQFLNMHRIIAIDRIGVTLMEPLTKMTGTQPIGSLGSICPNSYGSVKDVCTAKFGSKHFFHLIPNEATICSLLLCNRNDTAWDELKLTCQTALHVLQLTLKEPWALLGGGCTETHLAAYIRHKTHNDPESILKDDECTQTELQLIAEAFCSALESVVGSLEHDGGEILTDMKYGHLWSVQADSPCVANWPDLLSQCGCGLYNSQEELNWSFLRSTRRPFVPQSCLPHEAVGSASNLTLDCLTAKLSGLQVAVETANLILDLSYVIEDKN
B5: BBS4, human full length, yeast two-hybrid prey (other, UniProt Q96RK4 1-519, looked up, not shown: large carriers)
chain: MAEERVATRTQFPVSTESQKPRQKKAPEFPILEKQNWLIHLHYIRKDYEACKAVIKEQLQETQGLCEYAIYVQALIFRLEGNIQESLELFQTCAVLSPQSADNLKQVARSLFLLGKHKAAIEVYNEAAKLNQKDWEISHNLGVCYIYLKQFNKAQDQLHNALNLNRHDLTYIMLGKIHLLEGDLDKAIEVYKKAVEFSPENTELLTTLGLLYLQLGIYQKAFEHLGNALTYDPTNYKAILAAGSMMQTHGDFDVALTKYRVVACAVPESPPLWNNIGMCFFGKKKYVAAISCLKRANYLAPFDWKILYNLGLVHLTMQQYASAFHFLSAAINFQPKMGELYMLLAVALTNLEDIENAKRAYAEAVHLDKCNPLVNLNYAVLLYNQGEKKNALAQYQEMEKKVSLLKDNSSLEFDSEMVEMAQKLGAALQVGEALVWTKPVKDPKSKHQTTSTSKPASFQQPLGSNQALGQAMSSAAAYRTLPSGAGGTSQFTKPPSLPLEPEPAVESSPTETSEQIREK

Target: T1, full-length human nephrocystin-5 (NPHP5), yeast two-hybrid fusion (human, UniProt Q15051 1-598)
T1 construct: Full-length NPHP5 cDNA (598 amino acid residues) fused to a GAL4 domain; also called KIAA0036
T1 sequence: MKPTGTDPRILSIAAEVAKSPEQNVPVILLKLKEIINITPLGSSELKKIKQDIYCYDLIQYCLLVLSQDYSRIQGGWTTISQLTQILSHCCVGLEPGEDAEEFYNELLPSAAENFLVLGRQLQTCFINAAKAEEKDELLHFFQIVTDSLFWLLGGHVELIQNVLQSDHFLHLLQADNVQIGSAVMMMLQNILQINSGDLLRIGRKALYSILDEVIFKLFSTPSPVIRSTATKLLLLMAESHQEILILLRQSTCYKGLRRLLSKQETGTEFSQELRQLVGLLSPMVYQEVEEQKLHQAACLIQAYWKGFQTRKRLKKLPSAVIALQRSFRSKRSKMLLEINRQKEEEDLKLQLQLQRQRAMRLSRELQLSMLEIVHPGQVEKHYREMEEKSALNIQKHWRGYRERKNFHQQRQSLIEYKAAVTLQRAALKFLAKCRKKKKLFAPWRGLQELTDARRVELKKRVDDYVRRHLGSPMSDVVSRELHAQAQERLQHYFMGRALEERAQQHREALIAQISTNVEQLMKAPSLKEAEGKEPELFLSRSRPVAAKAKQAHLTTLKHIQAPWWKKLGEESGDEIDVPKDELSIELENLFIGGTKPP
Assay: direct yeast two-hybrid assay

Binder	binding result
B1	no binding
B2	no binding
B3	no binding
B4	no binding
B5	no binding

Source: patent US7838231 (REGENTS OF THE UNIVERSITY OF MICHIGAN, dated 2010)
